{
  "source": "patent US20040122214A1",
  "about": "(TRIMERIS, published 2004)",
  "key": {"[1]": {"target": "gp41 of HIV-1 strain sensitive to SEQ ID NO:114 peptide (HIV-1)", "test": "cell-based or functional assay"}, "[2]": {"target": "gp41 of HIV-1 strain resistant to SEQ ID NO:114 peptide (HIV-1)", "test": "cell-based or functional assay"}},
  "note": "No end group written: not given here.",
  "data": [
    {"binder": "{PEG‑6 diacid}-LTWQEWDREINNYTSLIYSLIEESQNQQEENEQELL (other, not fully specified; also: dimer: two peptides bound to PEG-6 diacid via N-termini)", "note": "[conjugate comprising two molecules of SEQ ID NO:114 operably bound to PEG 6]", "values": [
      {"measurement": "IC50, in vitro infectivity assay", "setting": "[1]", "value": 0.016, "unit": "µg/mL"},
      {"measurement": "IC90, in vitro infectivity assay", "setting": "[1]", "value": 0.169, "unit": "µg/mL"},
      {"measurement": "IC50, in vitro infectivity assay", "setting": "[2]", "value": 0.15, "unit": "µg/mL"}
    ]},
    {"binder": "LTWQEWDREINNYTSLIYSLIEESQNQQEENEQELL", "note": "[peptide comprising SEQ ID NO:114, synthetic peptide alone]", "values": [
      {"measurement": "IC50, in vitro infectivity assay", "setting": "[1]", "value": 0.005, "unit": "µg/mL"},
      {"measurement": "IC90, in vitro infectivity assay", "setting": "[1]", "value": 0.034, "unit": "µg/mL"},
      {"measurement": "IC50, in vitro infectivity assay", "setting": "[2]", "value": 2.4, "unit": "µg/mL"},
      {"measurement": "IC90, in vitro infectivity assay", "setting": "[2]", "value": "> 20", "unit": "µg/mL"}
    ]}
  ]
}
